In this assay the target is HA of H3N2 influenza virus Wyomin/3/03.rg (influenza A virus H3N2 Wyomin/3/03.rg). Briefly: cell-based or functional assay.

This note sets out measurements from patent US20140234336A1.

CT149 antibody: the MN titer was found to be 5 µg/mL.
